Test: label from the status in PepcDB records
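Also: failed if final PepcDB status was selected cloned or expressed and not failed if soluble or beyond.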

Sequence | protein production
MTDIVLADRYRLGDVIGTGGMSEVYEATDVLLGRKVAVKMLRADLARDVNFRERFRREAQNSGKLNHPAIVAVYDTGETPRAGLNTPYIVMELVNGRTLRDIVREDGPLTPSQAAHTLIPVCHALQVSHDAGIIHRDIKPANVMITNTGAVKIMDFGIARALDDATSAMTQTSAVIGTAQYLSPEQARGKLADARSDVYALGCVLYETLTGKPPFEGETPFAVAYQHVQEDPVKPSEYIADLSPTAAINVDAVVLTAMAKHPGDRYQTAQEMCADLERLGRNAVTDAARHYVTPTSFATQDPASTTVVPVTQVTELDHAEAGAGIGAGVVPAGAVAGSAAVAGSGGAHAAPRSSNRGLRILAAILAVLVLAVGAGFAIDYFGGGPFSQRSTVTIPKLQNSTQQDAVNQLEKLGLQVNVIEEPNPDIPRGKVIRTNPTDGSNVQRNSTVRLTISSGKEITEVPDLSGKNTADAVKILEAAGLLLDPTVREDSSDTVPKGEIIEVSPAAGSQVSRGSKVSITVSTGVETVRVPVITGMKWDQAEGNLTSLGFKPEVVRVDSVEPAGTVVAVPDEGAEVPKGSSVTVQISNGAMFTVPEITRQTIDDAVRILHDAGWKGNASRLIQAAKVPTVAVTDQNLIASQLPTPGTALRKDAPIEIRLYEFNLAALVPPAQH | failed
MTDLELQQLTQRIAQESFGKSFPYKVVFNQRLKTTGGRYHLNDHHIDINPLMLEEFDEATLIGVIKHELVHYFVHMLNEKPDHRNPHFQQLLRAVGGLRYAPTTSKRRRTPPKLLYQCQGCGLQYPRQRRINTRKYVCSKCRGRLKLL | failed
MTDLLLDGSEADNAQTVLNAARIELLSPRLANQIAAGEVVERPASVIKELLENSLDSGARRIDIDVEQAGIKLLKVRDDGGGISSDDLPLALARHATSKIRDLEDLERVMSLGFRGEALASISSVARLTLTSRTRDADQAWQVETEGRDMDARVQPAAHPVGTSVEVRDLFFNTPARRKFLKAEKTEFDHLHEVIKRMALARFDVAFHLRHNGKTVLSLHEAHDDTARARRVSAICGPGFLEQALPIEIERNGLHLWGWVGLPTFSRSQADLQYFFVNGRAVRDKLVAHAVRQAYRDVLFNGRHPTFVLFFEVDPAAVDVNVHPTKHEVRFRDGRMVHDFLYGTLHRALGDVRPENQLGGSVPAAAEPRPTGPDAGEFGPQGEMRLANNVLEQPQGEPFARPAGGGSGSGYQYSPRPTTGVPVAEAQSAYREFFAPLPGTTPSALPESPSDIPPLGYALAQLKGIYILAENAHGLVLVDMHAAHERIMYERLKIAMANEGLSGQPLLVPESIAVSQREADCAEEHITTFQRLGFELQRLGPETLAIRQIPALLKQAEANRLVSDVLADLMEYGTSDRVQAHMNELLGTMACHGAIRANRRLAIPEMNGLLRDMENTERSGQCNHGRPTWTQMGLSDLDKLFLRGQ | failed
MTDNSPPPNGHAQARVRKNNTFLSAVWLVPLIALIAGGWLWVKEIRNRGPVVTLLMDSAEGIEVNNTVIKVLSIDVGRVTRIKLRDDQKGVEVTAQLNADVSGLIRSDTQFWVVKPRIDQSGVTGLGTLLSGSYIAFTPGKSDEAKDVFQVQDIPPVTAIGQSGLRLNLIGKNDRILNVNSPVLYENFMVGQVESAHFDPSDQSVHYTIFIQSPNDKLIHSASRFWLESGINIETTGSGIKLNSAPLPALLSGAISFDSPKTKNSKNVKSEDSFTLYDSRSEVANLPDDRSLYYTAFFKQSVRGLTVGSPVEYKGLNVGVVSDVPYFDRNDSLHLFENGWIPVRIRIEPSRLEINADEQSKEHWKQQFQTALNKGLTATISSNNLLTGSKMIELNDQPSASPKLRPHTVYAGDTVIATQGGGLDDLQVKLADLLDKFDKLPLDKTVAELNGSLAELKSTLKSANAALSSIDKLVGKPQTQNIPNELNQTLKELRTTLQGVSPQSPIYGDVQNTLQSLDKTLKDVQPVINTLKEKPNALIFNSSSKDPIPKGSR | failed
MTDNTAVRRRYEKSFTERPGFTEDEIEEIREAFNLLDTDGTGTIDPKEIKCAMQSLGLDAKNPMIFRMIADLEKDGYSSIDFEEFMEVITSKLGNKDTREGIQRIFNLFDDDKTGSISLKNLKRVAKELGETLTDEELRDMIDRADSKGEGEISFEDFYTIMTKKSFL | failed
MTDQLQHIRKPPRTGKAARSGTQDEIVYAHIFDAILEQRLAPGTKLSEEALGEIFGVSRTIIRRALSRLAHEQVVLLRPNRGAVVASPSIDEARQILFARRTVERAITELATDNATAERLAEL | failed
MTDQRWLIDKSALVRLTDSPDMEIWSNRIERGLVHITGVTRLEVGFSAECGEIARREFREPPLSAMPVEYLTPRIEDRALEVQTLLADRGHHRGPSIPDLLIAATAELSGLTVLHVDKDFDAIAALTGQKTERLTHRPPSA | not failed
MTDQTYCDRLVQDTPFLTGHGRLSEQQVDRIILQLNRYYPQILTNKEAEKFRNPKASLRVRLCDLLSHLQRSGERDCQEFYRALYIHAQPLHSRLPSRHALQNSDCTELDSGSQSGELSNRGPMSFLAGLGLAVGLALLLYCYPPDPKGLPGTRRVLGFSPVIIDRHVSRYLLAFLADDLGGL | failed
MTDQVFGKVSKVVCVGAGYVGGPTCAMIAHKCPHITVTVVDMNTAKIAEWNSDKLPIYEPGLDEIVFAARGRNLFFSSDIPKAIAEADLIFISVNTPTKMYGRGKGMAPDLKYVESVSRTIAQYAGGPKIVVEKSTVPVKAAESIGCILREAQKNNENLKFQVLSNPEFLAEGTAMKDLANPDRVLIGGESSPEGLQAVAELVRIYENWVPRNRIITTNTWSSELSKLVANAFLAQRISSINSISAVCEATGAEISEVAHAVGYDTRIGSKFLQASVGFGGSCFQKDVLSLVYLCESLNLPQVADYWQGVININNWQRRRFADKIIAELFNTVTDKKIAIFGFAFKKNTGDTRESSAIHVIKHLMEEHAKLSVYDPKVQKSQMLNDLASVTSAQDVERLITVESDPYAAARGAHAIVVLTEWDEFVELNYSQIHNDMQHPAAIFDGRLILDQKALREIGFRTFAIGTSPDQAYNLFGTAGY | not failed
MTDTASKYAVKLKTNFEDPKWVNRHKFMFNFLDINGNGKITLDEIVSKASDDICAKLGATPAQTQRHQEAVEAFFKKIGLDYGKEVEFPAFVNGWKELAKHDLKLWSQNKKSLIRNWGEAVFDIFDKDGSGSISLDEWKTYGGISGICPSDEDAEKTFKHCDLDNSGKLDVDEMTRQHLGFWYTLDPNADGLYGNFVP | not failed
MTDWQQALDRHVGVGVRTTRDLIRLIQPEDWDKRPISGKRSVYEVAVHLAVLLEADLRIATGATADEMAQFYAVPVLPEQLVDRLDQSWQYYQDRLMADFSTETTYWGVTDSTTGWLLEAAVHLYHHRSQLLDYLNLLGYDIKLDLFE | not failed
MTDYTKLQQVRQWTQDNHVDVTYISNFHTISYLTGFESNPYERTLALFVFADAEPFLFAPALEVEAIKEMGWPYKVFGYLDHENPYALIADHIHAQLTDPKVWALETGNLTLDRFTALKQQFPAAHFDKDLSPYIQQLRLVKTADELEKLNIAGKWADFAFEQGFAAVKAGRTEQQIAAELQYALMKKGIMEMSFDTLVQAGEHAANPHGATNETQVKPNELVLFDLGVMYEGYASDASRTIAYGQPSAKQKEIFDVCLEANLTAQAAIKPGMAAEDVDKIARDIITKAGYGEYFIHRLGHGIGQTDHEFPSIMAGNHMPLVEGMCFSVEPGIYIPGVAGVRIEDCGVVTKEGFKPFTHTPKELKVLDL | failed
MTEEKKRGFRIPSSYTVLFIIIAIMAVLTWFIPAGAYETAKGGGVISGTYKTVASNPQGFFDILMAPVRGMLGVEGTDGAIQVSFFILMVGGFLGVVNKTGALDTGIASVVRKNKGREKMLIAILIPLFALGGTTYGMGEETMAFYPLLIPVMIAVGFDSIVAVAIILIGSQIGCLASTINPFATGVAADAAGVSIADGMIWRVIQWVILVGMSIWFVYNYASKIEEDPSKSLVADKEEEHKELFQLQNSGEDLNKRQRNVLTIFTLTFVIMILSLIPWEDFGIKFFTNINTWLTTMPILGGVIGKTMGAFGTWYFPEITMLFIMMGVLVAIVYRMSEEDFFSSFLTGAGEFLGVAMICAIARGIQVIMNGGMITATILHLGETSLSGLSSQVFVILAYIFYLPMSFLIPSTSGLAGATMGIMAPLGQFSNVPAHLVITAFQSASGILNMISPTSAIVMGALALGRVDLGTWWKFIGKFIVMVMLVSVLLLVVATFF | not failed
MTEFPKILMVLGAVIFGIGLFMQVIGRLPGDIFVKKGNVTFFFPVVTCIVISIILSVVFSFFGRMK | failed

From a protein production outcome set (Wang et al. 2014)
